This series has as its system MS2 coat protein. Description: apparent KD of MS2 coat protein; designed switch direction (-1 OFF switch, 1 ON switch): -1; higher = weaker reporter binding. The gist of the method:
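Designed RNA switches with common flanks were made on Illumina chips by stalled E. coli RNA polymerase. Titration with SNAP-549-labelled MS2 coat protein doubled from 0.7 or 1.5 nM up to 3 µM. Apparent KD is each design's median over clusters after curve-fitting normalised fluorescence.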

The mark [1] stands for this setting: input ligand: microRNA oligo, concentration not stated.
The mark [2] stands for this setting: Eterna round: R95, input ligand: microRNA oligo, concentration not stated.

We go through twelve sequences from the supplement of paper PMC9170038.

For the sequence “GCUCGCGGGCAAGGAUAUCCUACGCUGUUCUGGCUCGUGUCUGUUACAUGAGGAUCACCCAUGUGGGAGAAGGUGCACCAGGGC [Design 47] (Eterna round: R96, puzzle: Exclusion NG 2)”, the “apparent KD of MS2 coat protein” value is, setting by setting: (input ligand: FMN 200 uM) 24.9 nM; under setting [1], 17.4 nM; (input ligand: none) 22.6 nM.

“GGUACUCAAAGAGUACCAAUACGAACAUGAGGAUCACCCAUGUAGGAUAUGCUACUCAAAGAGUAGCAGAAGGACAUGUGCCUU [Far Half Aptamer v5] (Eterna round: R96, puzzle: Exclusion NG 3)”: the “apparent KD of MS2 coat protein” value (input ligand: FMN 200 uM) stood at 254 nM, the “apparent KD of MS2 coat protein” value under setting [1] came to 25.3 nM and the “apparent KD of MS2 coat protein” value (input ligand: none) stood at 29.5 nM.

“GGGCCCGGAGGAUAUACAAUGGGUUUGGGAAACCGGGCCCUACAUGAGGAUCACCCAUGUAGAAGGCCGGGCCC [-41, -38.9 kcal A 24%, 5b,0] (Eterna round: R97, puzzle: Exclusion 2)”: the “apparent KD of MS2 coat protein” value is, setting by setting: (input ligand: FMN 200 uM) 39.9 nM; (input ligand: none) 34.2 nM.

Turning to “CGAUGUGGAGUGAGGAUAUCGUGUUCGAAAGAACGUGAGAAGGCACAUGAGGAUCACCCAUGUGAUCCAUGUCG [Omei Ex4B A8] (Eterna round: R97, puzzle: Brourd's mod of Exclusion 4)”, the “apparent KD of MS2 coat protein” value by setting is: (input ligand: FMN 200 uM) 31.7 nM; (input ligand: none) 26.4 nM.

Turning to “UGCUGACAAGGAUAUACAUGAGGAUCACCCAUGUUGGUUCAGCGACGAUAGUCGCAAUGUAGAAGGUGUCAGCA [E3/9-C1] (Eterna round: R97, puzzle: Exclusion 3)”, the “apparent KD of MS2 coat protein” value reads like this: (input ligand: FMN 200 uM) 135 nM; (input ligand: none) 236 nM.

Take “AAAUACAAGCAAAGAUCUUACAUGAGGAUCACCCAUGUGCUCGUCUUAUAAAGUACUAUCACGAAAGUGAUAGUACA [Sensor 3, v1 - 29] (puzzle: Sensor v3, turn-off variant 1)”: the “apparent KD of MS2 coat protein” value (Eterna round: R95, input ligand: FMN 200 uM) turned out to be 19.5 nM; the “apparent KD of MS2 coat protein” value under setting [2] was 108 nM; the “apparent KD of MS2 coat protein” value (Eterna round: R95, input ligand: none) amounted to 19.1 nM.

Regarding “AAGGAUAGAGGAUAUACAUAGAUACAGAUUCAUGUGGAACUACAUGAGGAUCACCCAUGUAGAAGGCUAUCCUA [Fiskers Ex 2 - 9] (puzzle: Exclusion 2)”, under setting [2], the “apparent KD of MS2 coat protein” value turned out to be 35.9 nM.

As for “CUAAAUCAUGUAGGAUAUGCGUGGCAAAGCUAUGCAGAAGGACAUGAGGAUCACCCAUGUCAUUCCGUCUGAGAACAGACGGGA [Mat - Exclusion NG 1 - Mod of JL - D51] (Eterna round: R96, puzzle: Exclusion NG 1)”, the “apparent KD of MS2 coat protein” value is 172 nM (input ligand: FMN 200 uM), 17.1 nM under setting [1] and 22.1 nM (input ligand: none).

In the case of “UUAAUUUAAGGGAUAGAUCAUUACAUGAGGAUCACCCAUGUUGAGGAUAUCAGCUCGAUUAGAGCUGAGAAGGCAACAAUAGGG [ExNG3/14-A1] (Eterna round: R96, puzzle: Exclusion NG 3)”, the “apparent KD of MS2 coat protein” value is 46 nM (input ligand: FMN 200 uM), 47.1 nM under setting [1] and 63.8 nM (input ligand: none).

With “CUUGAGCAGGUAGGAUAUACGAAGUGUCGGCGAGUAGAAGGACCUGCGAUCCACUUGAGGAUCACCCAAGUUCGCAGGAGAACA [Mutated MS2 EX1.1] (Eterna round: R96, puzzle: Exclusion NG 1)”, the “apparent KD of MS2 coat protein” value is, setting by setting: (input ligand: FMN 200 uM) 241 nM; under setting [1], 32.4 nM; (input ligand: none) 61.3 nM.

Consider “CAGUACUGAGGAUAUACAUGAGGAUCACCCAUGUGAGAGAUACUAGUGAGGUCGAUUAGUAGAAGGCAGUACUG [Mat X3R4 m3] (Eterna round: R97, puzzle: Exclusion 3)”, for which the “apparent KD of MS2 coat protein” value by setting is: (input ligand: FMN 200 uM) 856 nM; (input ligand: none) 35.7 nM.

For “GACUGCCGAGGAUAUACAUGAGGAUCACCCAUGUGCUUCAGUAUCGAAAGAUGCAUGGGUAGAAGGCGGUAGUC [LRO-Excl3-10] (puzzle: Exclusion 3)”, the “apparent KD of MS2 coat protein” value under setting [2] came to 172 nM.
